Experimental data as given in PMC4406679.

Target: T1, His-OpaR (Vibrio parahaemolyticus BB22OP) (UniProt Q79YV4)
T1 sequence: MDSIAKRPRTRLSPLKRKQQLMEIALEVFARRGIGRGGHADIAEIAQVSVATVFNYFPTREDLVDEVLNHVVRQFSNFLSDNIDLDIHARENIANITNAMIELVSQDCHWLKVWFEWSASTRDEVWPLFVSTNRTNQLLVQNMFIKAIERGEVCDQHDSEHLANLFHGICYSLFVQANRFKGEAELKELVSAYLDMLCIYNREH
Experiment: EMSA
Conditions: 10 mM Tris-HCl pH 7.5, 50 mM NaCl, 1 mM MgCl2, 0.5 mM EDTA, 0.5 mM DTT, 0.05 mg/ml poly d(I-C), 150 ug/ml BSA; temperature not stated

“CTGTAAGTGAAGAATAATACCGAATGAAGTTTAAAGGCGCTCGAATGAGCGCCTTTTTTATTTGTCATGGAAAACGATAAGAACGAATATGCCGAACATTGAGATCATTCGCTTTAACCACTT (double strand) [araC family (VPBB_A0554) promoter]” was tested, and the binding was “no binding”.
